For the assay, the target named is T1, GST-tagged SH3 domain of Bin1.
T1 chain: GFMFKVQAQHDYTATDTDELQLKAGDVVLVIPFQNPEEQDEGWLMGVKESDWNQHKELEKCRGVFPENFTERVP
The experiment in a line: GST pulldown. The note with it: parent: 1.0, read off a plot.

Where [1] appears, read: chain shown with the change, 12 µg GST-Bin-SH3, 6 µg purified Dyn2.

The source of these data is paper PMC9712776.

B1: dynamin-2 (human Dyn2 isoform 1), wild type, P50570 S848A (protein)
chain: MGNRGMEELIPLVNKLQDAFSSIGQSCHLDLPQIAVVGGQSAGKSSVLENFVGRDFLPRGSGIVTRRPLILQLIFSKTEHAEFLHCKSKKFTDFDEVRQEIEAETDRVTGTNKGISPVPINLRVYSPHVLNLTLIDLPGITKVPVGDQPPDIEYQIKDMILQFISRESSLILAVTPANMDLANSDALKLAKEVDPQGLRTIGVITKLDLMDEGTDARDVLENKLLPLRRGYIGVVNRSQKDIEGKKDIRAALAAERKFFLSHPAYRHMADRMGTPHLQKTLNQQLTNHIRESLPALRSKLQSQLLSLEKEVEEYKNFRPDDPTRKTKALLQMVQQFGVDFEKRIEGSGDQVDTLELSGGARINRIFHERFPFELVKMEFDEKDLRREISYAIKNIHGVRTGLFTPDLAFEAIVKKQVVKLKEPCLKCVDLVIQELINTVRQCTSKLSSYPRLREETERIVTTYIREREGRTKDQILLLIDIEQSYINTNHEDFIGFANAQQRSTQLNKKRAIPNQGEILVIRRGWLTINNISLMKGGSKEYWFVLTAESLSWYKDEEEKEKKYMLPLDNLKIRDVEKGFMSNKHVFAIFNTEQRNVYKDLRQIELACDSQEDVDSWKASFLRAGVYPEKDQAENEDGAQENTFSMDPQLERQVETIRNLVDSYVAIINKSIRDLMPKTIMHLMINNTKAFIHHELLAYLYSSADQSSLMEESADQAQRRDDMLRMYHALKEALNIIGDISTSTVSTPVPPPVDDTWLQSASSHSPTPQRRPVSSIHPPGRPPAVRGPTPGPPLIPVPVGAAASFSAPPIPSRPGPQSVFANSDLFPAPPQIPSRPVRIPPGIPPGVPARRPPAAPSRPTIIRPAEPSLLD
Take B1: the ratio to parent is, setting by setting: under setting [1], 0.86; (chain shown with the change;) 1.2.

B2: dynamin-2 (human Dyn2 isoform 1), wild type, P50570 S856A (protein)
chain: MGNRGMEELIPLVNKLQDAFSSIGQSCHLDLPQIAVVGGQSAGKSSVLENFVGRDFLPRGSGIVTRRPLILQLIFSKTEHAEFLHCKSKKFTDFDEVRQEIEAETDRVTGTNKGISPVPINLRVYSPHVLNLTLIDLPGITKVPVGDQPPDIEYQIKDMILQFISRESSLILAVTPANMDLANSDALKLAKEVDPQGLRTIGVITKLDLMDEGTDARDVLENKLLPLRRGYIGVVNRSQKDIEGKKDIRAALAAERKFFLSHPAYRHMADRMGTPHLQKTLNQQLTNHIRESLPALRSKLQSQLLSLEKEVEEYKNFRPDDPTRKTKALLQMVQQFGVDFEKRIEGSGDQVDTLELSGGARINRIFHERFPFELVKMEFDEKDLRREISYAIKNIHGVRTGLFTPDLAFEAIVKKQVVKLKEPCLKCVDLVIQELINTVRQCTSKLSSYPRLREETERIVTTYIREREGRTKDQILLLIDIEQSYINTNHEDFIGFANAQQRSTQLNKKRAIPNQGEILVIRRGWLTINNISLMKGGSKEYWFVLTAESLSWYKDEEEKEKKYMLPLDNLKIRDVEKGFMSNKHVFAIFNTEQRNVYKDLRQIELACDSQEDVDSWKASFLRAGVYPEKDQAENEDGAQENTFSMDPQLERQVETIRNLVDSYVAIINKSIRDLMPKTIMHLMINNTKAFIHHELLAYLYSSADQSSLMEESADQAQRRDDMLRMYHALKEALNIIGDISTSTVSTPVPPPVDDTWLQSASSHSPTPQRRPVSSIHPPGRPPAVRGPTPGPPLIPVPVGAAASFSAPPIPSRPGPQSVFANSDLFPAPPQIPSRPVRIPPGIPPGVPSRRPPAAPARPTIIRPAEPSLLD
For the molecule B2, where the note is “chain shown with the change;”, the ratio to parent came out at 1.1.

B3: dynamin-2 (human Dyn2 isoform 1), wild type, P50570 S848E (protein)
chain: MGNRGMEELIPLVNKLQDAFSSIGQSCHLDLPQIAVVGGQSAGKSSVLENFVGRDFLPRGSGIVTRRPLILQLIFSKTEHAEFLHCKSKKFTDFDEVRQEIEAETDRVTGTNKGISPVPINLRVYSPHVLNLTLIDLPGITKVPVGDQPPDIEYQIKDMILQFISRESSLILAVTPANMDLANSDALKLAKEVDPQGLRTIGVITKLDLMDEGTDARDVLENKLLPLRRGYIGVVNRSQKDIEGKKDIRAALAAERKFFLSHPAYRHMADRMGTPHLQKTLNQQLTNHIRESLPALRSKLQSQLLSLEKEVEEYKNFRPDDPTRKTKALLQMVQQFGVDFEKRIEGSGDQVDTLELSGGARINRIFHERFPFELVKMEFDEKDLRREISYAIKNIHGVRTGLFTPDLAFEAIVKKQVVKLKEPCLKCVDLVIQELINTVRQCTSKLSSYPRLREETERIVTTYIREREGRTKDQILLLIDIEQSYINTNHEDFIGFANAQQRSTQLNKKRAIPNQGEILVIRRGWLTINNISLMKGGSKEYWFVLTAESLSWYKDEEEKEKKYMLPLDNLKIRDVEKGFMSNKHVFAIFNTEQRNVYKDLRQIELACDSQEDVDSWKASFLRAGVYPEKDQAENEDGAQENTFSMDPQLERQVETIRNLVDSYVAIINKSIRDLMPKTIMHLMINNTKAFIHHELLAYLYSSADQSSLMEESADQAQRRDDMLRMYHALKEALNIIGDISTSTVSTPVPPPVDDTWLQSASSHSPTPQRRPVSSIHPPGRPPAVRGPTPGPPLIPVPVGAAASFSAPPIPSRPGPQSVFANSDLFPAPPQIPSRPVRIPPGIPPGVPERRPPAAPSRPTIIRPAEPSLLD
For the molecule B3, the ratio to parent by setting is: under setting [1], 0.42; (chain shown with the change;) 0.66.

B4: dynamin-2 (human Dyn2 isoform 1), wild type, P50570 S856E (protein)
chain: MGNRGMEELIPLVNKLQDAFSSIGQSCHLDLPQIAVVGGQSAGKSSVLENFVGRDFLPRGSGIVTRRPLILQLIFSKTEHAEFLHCKSKKFTDFDEVRQEIEAETDRVTGTNKGISPVPINLRVYSPHVLNLTLIDLPGITKVPVGDQPPDIEYQIKDMILQFISRESSLILAVTPANMDLANSDALKLAKEVDPQGLRTIGVITKLDLMDEGTDARDVLENKLLPLRRGYIGVVNRSQKDIEGKKDIRAALAAERKFFLSHPAYRHMADRMGTPHLQKTLNQQLTNHIRESLPALRSKLQSQLLSLEKEVEEYKNFRPDDPTRKTKALLQMVQQFGVDFEKRIEGSGDQVDTLELSGGARINRIFHERFPFELVKMEFDEKDLRREISYAIKNIHGVRTGLFTPDLAFEAIVKKQVVKLKEPCLKCVDLVIQELINTVRQCTSKLSSYPRLREETERIVTTYIREREGRTKDQILLLIDIEQSYINTNHEDFIGFANAQQRSTQLNKKRAIPNQGEILVIRRGWLTINNISLMKGGSKEYWFVLTAESLSWYKDEEEKEKKYMLPLDNLKIRDVEKGFMSNKHVFAIFNTEQRNVYKDLRQIELACDSQEDVDSWKASFLRAGVYPEKDQAENEDGAQENTFSMDPQLERQVETIRNLVDSYVAIINKSIRDLMPKTIMHLMINNTKAFIHHELLAYLYSSADQSSLMEESADQAQRRDDMLRMYHALKEALNIIGDISTSTVSTPVPPPVDDTWLQSASSHSPTPQRRPVSSIHPPGRPPAVRGPTPGPPLIPVPVGAAASFSAPPIPSRPGPQSVFANSDLFPAPPQIPSRPVRIPPGIPPGVPSRRPPAAPERPTIIRPAEPSLLD
With B4, the ratio to parent (chain shown with the change;) was 1.
